This is an account of results in US20250002575A1 (Genentech, published 2025).

The term Kd denotes the free concentration of one partner at which half of the binding sites on the other are occupied at equilibrium, for simple one-to-one binding. A word on the koff: it is a measure of how fast the partners let go of each other. In general, kon refers to the rate constant with which the complex forms.

Experiment [1] deals with T1, reduced recombinant human IL-33 (His-tagged, amino acids 112-270) (human, UniProt O95760 112-270).
T1 construct: range 112-270; Expressed in E. coli; kept in the reduced state (all four cysteines free) with TCEP; also called reduced hIL-33; hIL-33
T1 sequence: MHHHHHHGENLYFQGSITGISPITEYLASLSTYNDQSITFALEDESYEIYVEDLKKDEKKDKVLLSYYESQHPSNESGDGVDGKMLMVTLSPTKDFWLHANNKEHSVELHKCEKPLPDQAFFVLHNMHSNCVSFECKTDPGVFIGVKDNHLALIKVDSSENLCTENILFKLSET
Nature of the experiment: SPR (Biacore), antibody captured, reduced hIL-33 as analyte. Here is the method: (§1) A Series S Protein A sensor chip (Cytiva, Marlborough, MA, USA) was used to capture recombinant chimeric human IgG versions of anti-hIL-33 Abs using a BIACORE® 8 k instrument (Cytiva, Marlborough, MA, USA). Antibody binding to human histidine-tagged hIL-33 (Genentech, South San Francisco, CA, USA) was measured using multi-cycle kinetics. Sensorgrams were recorded using an injection time of 2 minutes with a flow rate of 30 μL/min, at 25° C. or 37° C., and with a running buffer of 10 mM N-2-hydroxyethylpiperazine-N′-2-ethanesulfonic acid (HEPES), pH 7.4, 150 mM sodium chloride (NaCl), 3 mM ethylenediaminetetraacetic acid (EDTA), and 0.005% TWEEN® 20. After injection, dissociation of hIL-33 from the antibody was monitored for 10 minutes in running buffer. The surface was regenerated between binding cycles with a 30 μL injection of 10 mM Glycine hydrochloric acid (HCl) pH 1.5. After subtraction of a blank containing running buffer only, sensorgrams were analyzed using a 1:1 Langmuir binding model with software supplied by the manufacturer to calculate the kinetics and binding constants.
On the technique in general: SPR reads the build-up and loss of mass on a sensor chip optically.

For experiment [2], the target named is T1, reduced recombinant human IL-33 …. Nature of the experiment: SPR (Biacore 8K), antibody captured on Protein A chip, reduced hIL-33 as analyte, multi-cycle kinetics, 25 C. The method, then: as §1

B1: rat/human chimeric anti-hIL-33 3F10 MAb (antibody, human IgG1, kappa, V domains shown)
VH: QVQLEESGPGLVQPSQTLSLTCTVSGFSLTSQNVHWVRQPPGKGLEWMGRMRFNGDTSYNSTLKSRLSISRDTSKNQVFLRLNSLQTDDTGTYYCARQRDNYGSYYFDDWGQGIMVTVSS
VL: DTVLTQSPALAVSPGERVTISCRASESVLTLLNWYQQKPGQHPKLLIYLASHLESGVPARFSGRGSGTDFTLTIDPVEADDTASYYCQQSWIDPWTFGGGTTLELKR
notes: Rat variable domains on human IgG1/kappa constant regions; also called clone 3F10; capture MAb
B1: the Kd in experiment [1] stood at 0.487 nM. Also, in experiment [2], the Kd was 0.777 nM, the koff amounted to 0.000243 s⁻¹ and the kon stood at 312000 M⁻¹ s⁻¹.

B2: rat IgG2a anti-human IL-33 clone 15.21C7 (antibody, V domains shown)
VH: EVQLVESGGGLVQPGTSLKLSCVASGFTFSDFWMSWVRQTPGKTMEWIADIKNDGSHTKYAPSLQNRFTISRDNAKNTLYLEVTDVRSEDTATYYCTRVGGTYTAYYWGHGVMVTVSS
VL: DIQMTQTPSSMPASLGERVTLSCRTSQGINTYLNWYQQKPDGTITPLIHYTSNLESGVPSRFSGSGFGTDYFLTISSLEPEDFAMYFCQQYASSPWTFGGGTKLELKK
notes: also called rat anti-reduced hIL-33 15.21C7 IgG2a
In the case of B2, the Kd in experiment [1] was 0.338 nM. For the same molecule, in experiment [2], the Kd was determined as 0.291 nM, the koff amounted to 0.000146 s⁻¹ and the kon came to 501000 M⁻¹ s⁻¹.
